This is an account of results in patent publication US20240309103A1.

Experiment [1] addresses mNPR1-mFc:hBNP complex (mouse; human) (UniProt P16860). As to the kind of experiment: SPR Biacore, mAb captured by anti-human Fc, 25C.
Experiment [2] concerns the target mNPR1-mFc:hANP complex (mouse; human) (UniProt P01160). Kind of experiment: SPR Biacore, mAb captured by anti-human Fc, 25C.
In experiment [3] the target is mNPR1-mFc:hBNP complex (mouse; human) (UniProt P16860). Kind of experiment: SPR Biacore, mAb captured by anti-human Fc, 37C. (In SPR one partner is held on a chip, and binding of the other changes the refractive index at the surface.)
Experiment [4] addresses mNPR1-mFc:hANP complex (mouse; human) (UniProt P01160). As to the kind of experiment: SPR Biacore, mAb captured by anti-human Fc, 37C.
The target in experiment [5] is mNPR1-mFc:hBNP complex (mouse; human) (UniProt P16860). As to the kind of experiment: SPR Biacore, mAb captured by anti-human Fc, 37C; kinetics IC* (inconclusive).
Experiment [6] addresses mNPR1-mFc:hANP complex (mouse; human) (UniProt P01160). The experiment is described as above.
Experiment [7] has as its target human NPR1 on HEK293/hNPR1.myc.DDK cells (0 hANP) (human) (UniProt P16066). As to the kind of experiment: cell-based or functional assay.
The target in experiment [8] is human NPR1 on HEK293/hNPR1.myc.DDK cells (no hANP added) (human) (UniProt P16066). Kind of experiment: cell-based or functional assay.
Experiment [9] addresses human NPR1 on HEK293/hNPR1.myc.DDK cells (0 hANP) (human) (UniProt P16066). Kind of experiment: ECL cell binding (MSD), 0 hANP.

Bounds are passed on as bounds.

Chain of human NPR1 on HEK293/hNPR1.myc.DDK cells (0 hANP) (human) (P16066 33-1061): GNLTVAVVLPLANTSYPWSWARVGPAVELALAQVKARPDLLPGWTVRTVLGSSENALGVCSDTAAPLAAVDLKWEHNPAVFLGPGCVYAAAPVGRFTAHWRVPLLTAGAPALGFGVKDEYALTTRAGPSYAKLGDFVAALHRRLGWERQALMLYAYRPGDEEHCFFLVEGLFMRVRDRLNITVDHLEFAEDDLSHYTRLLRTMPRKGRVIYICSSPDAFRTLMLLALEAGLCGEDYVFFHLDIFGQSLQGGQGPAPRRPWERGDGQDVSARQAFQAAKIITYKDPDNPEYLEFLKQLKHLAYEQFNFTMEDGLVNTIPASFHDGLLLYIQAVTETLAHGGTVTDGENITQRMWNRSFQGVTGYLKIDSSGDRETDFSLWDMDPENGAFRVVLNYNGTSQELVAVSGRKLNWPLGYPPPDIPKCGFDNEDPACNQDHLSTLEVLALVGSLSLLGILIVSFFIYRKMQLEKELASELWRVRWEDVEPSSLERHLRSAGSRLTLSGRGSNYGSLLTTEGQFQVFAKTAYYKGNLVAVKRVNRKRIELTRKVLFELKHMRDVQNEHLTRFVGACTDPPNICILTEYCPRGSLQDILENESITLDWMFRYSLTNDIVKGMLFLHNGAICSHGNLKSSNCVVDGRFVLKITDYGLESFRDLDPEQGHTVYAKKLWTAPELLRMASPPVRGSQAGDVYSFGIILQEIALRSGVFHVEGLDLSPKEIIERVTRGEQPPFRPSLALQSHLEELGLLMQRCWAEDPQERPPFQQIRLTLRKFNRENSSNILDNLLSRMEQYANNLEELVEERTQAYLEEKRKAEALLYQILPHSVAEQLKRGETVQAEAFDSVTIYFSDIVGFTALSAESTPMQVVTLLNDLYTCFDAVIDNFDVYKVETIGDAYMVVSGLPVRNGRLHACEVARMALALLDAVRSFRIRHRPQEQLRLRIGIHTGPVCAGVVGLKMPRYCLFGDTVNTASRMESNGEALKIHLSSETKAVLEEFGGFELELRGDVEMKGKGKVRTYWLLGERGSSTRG
Chain of human NPR1 on HEK293/hNPR1.myc.DDK cells (no hANP added) (human) (P16066 33-1061): as above

B1: mAb22033 (antibody, human IgG4, V domains shown)
VH: QVQLVQSGAEVKKPGASVTVSCKASGYTFTDYYMHWVRQAPGQGLEWMGWIKPNSGGTNSAQRFQGRITMTWDTSISTAYMELSRLRSDDTAVYYCSRGGPVMNYYYYYGMDVWGQGTTVTVSS
VL: NIQMTQSPSSLSASVGDRVTITCRASQSIDSYLNWYQQKPGKAPKLLIYVASSLQSGVPSRFSGSGSGKDFTLTISSLQPEDFATYYCQQSYSIPTFGQGTRLEIK
B1: the 100 nM Ag Bound (RU) in experiment [1] was found to be 5 RU; in [2], 1 RU; in experiment [3] it was 4 RU; in experiment [4], 2 RU.

B2: mAb25508 (antibody, human IgG4, V domains shown)
VH: EVQLVESGGGVVRPGGSLRLSCAASGFNVDDYGMSWVRQIPGKGLEWISGINWNGGRIYYADSMKGRITISRDNAKNSLYLQMNSLRAEDTALYHCVRDQWLVRGLDYWGQGTLVTVSS
VL: DIQMTQSPSSLSASVGDRVTITCRASQGIYNYLAWFQQKPGKAPKSLIYAASSLQSGVPSKFSGSGSGTDFTLTISSLQPEDFATYYCQQYNTYPYTFGQGTKLEIK
In the case of B2, the 100 nM Ag Bound (RU) in experiment [1] amounted to 1 RU; in [2], 0 RU; in experiment [3] it was 1 RU; in [4] it was 0 RU.

B3: mAb22809 (antibody, human IgG4, V domains shown)
VH: QLQLRESGPGLVKPSETLSLTCTVSGGSINDNSFFWDWIRQTPGRGLEWIGNIFFDGNTYYTPSLKSRVIISVDMSQNQFSLRLTSVTAADTALYYCARHKRSMTAWGFFDYWGQGTLVTVSS
VL: DIQMTQSPSSLSASVGDRVTITCRASKRINTYLNWYQQKPGKAPKVLIYSASNLQSGVPSRFSGSGSGTDFTLTINSLQPEDFATYFCQQSFSAPPITFGQGTRLEIK
For B3, the 100 nM Ag Bound (RU) in [1] is 1 RU; in [2], 0 RU; in experiment [3], 1 RU; in experiment [4] it was 1 RU.

B4: mAb25497 (antibody, human IgG4, V domains shown)
VH: QVQLVQSGAEVKEPGASVKVSCKASGYTFTDYYIHWVRQAPGQGLEWMGWINLNSGGKNHAQKFQGRVTVTSDTSINTAYIELGRLRGDDTAVYYCSRGGGSHYYYYYHGMDVWGQGTTVTVSS
VL: DIQMTQSPSSLSASVGDRITITCRASHSIDSYLNWYQQKPGKAPKLLIYPASTLQSGVPSRFSGSGSGTDFTLTISSLQPEDSAIYYCQQSYSTPLTFGGGTKVEIK
On to B4, for which the 100 nM Ag Bound (RU) in [1] came out at 2 RU; in [2] it was 1 RU; in [3] it was 2 RU; in [4] it was 1 RU.

B5: mAb22805 (antibody, human IgG4, V domains shown)
VH: QVQLVESGGGVVQPGRSLRLSCAASGFTFSTYGMHWVRQAPGKGLEWVALIWNDGSNKYYADSVKGRFTISRDNSKNTLDLQMNSLRAEDTAVYYCARLNTRITGTTNLDYWGQGTLVTVSS
VL: DIQMTQSPSSLSASVGDRVTVSCRASQSIANYLNWYQQKPGKAPNLLIYGAYTLQSGVPSRFRGSGSGTDFTLTISSLQPEDFATYYCQQTYSTPPITFGQGTRLEIK
Broadly, the Kd is the concentration at which binding is half-saturated. High values mean lower affinity, low ones higher affinity. As usually defined, the koff is the first-order rate constant of dissociation. Read a high koff as fast dissociation. What is called kon is the rate constant with which the complex forms. Read a low kon as slower complex formation. As a reminder, the t½ is the time needed for the level to fall by half in the phase considered. The low end stands for rapid decline, the high end for slow decline. In the case of B5, the 100 nM Ag Bound (RU) in experiment [5] turned out to be 17 RU. This molecule registered a 100 nM Ag Bound (RU) in experiment [6] of 15 RU. Further, in experiment [1], the 100 nM Ag Bound (RU) was 21 RU, the Kd amounted to 445 nM, the koff was determined as 0.0682 s⁻¹ and the kon was 153000 M⁻¹ s⁻¹. The molecule also yielded a t½ in experiment [1] of 10.2 s. Further, in [2], the 100 nM Ag Bound (RU) turned out to be 18 RU, the Kd amounted to 424 nM, the koff turned out to be 0.0839 s⁻¹ and the kon was 198000 M⁻¹ s⁻¹. Moreover, the t½ in experiment [2] is 8.4 s.

B6: mAb25502 (antibody, human IgG4, V domains shown)
VH: QLQLQESGPGLVKPSETLSLTCTVSGGSISSSSYYWGWIRQPPGKGLEWIGSIYYSGSPYYIPSLKSRVTISVDTSKNQFSLKLSSVTAADTAMYYCARQGRGIARAGPFDYWGQGTLVTVSS
VL: DIQMTQSPSSLSASVGDRVTITCRASQGISNYLAWYQEKPGKVPKLLIYAASTLQSGVPSRFSGSGSGTDFTLTITSLQSEDVATYYCQKYNSAPPWTFGQGTKVEIK
On to B6, for which, in experiment [7], the % Activation (vs ANP max), Expt 1 is 92.9%; the % Activation (vs. ANP max), Expt II is 110%; the EC50 (nM), calcium flux, Expt 1 came to 161 nM; the EC50 (nM), calcium flux, Expt II is over 200 nM. The molecule further gave an EC50 of Ca2+ flux activation, Expt II in [8] of over 200 nM. In addition, the Ratio at 3.7 nM Ab concentration of Cell Binding Signal (RLU) to HEK293/hNPR1.myc.DKK relative to parental HEK293 in experiment [9] was 1. Moreover, in experiment [1], the 100 nM Ag Bound (RU) worked out at 25 RU, the Kd was 215 nM, the koff was 0.0503 s⁻¹ and the kon was determined as 234000 M⁻¹ s⁻¹. This molecule also had a t½ in [1] of 13.8 s. In experiment [2], the 100 nM Ag Bound (RU) turned out to be 25 RU, the Kd is 337 nM, the koff stood at 0.0799 s⁻¹ and the kon turned out to be 237000 M⁻¹ s⁻¹. This molecule also gave a t½ in experiment [2] of 8.4 s. In [3], this molecule came in with a 100 nM Ag Bound (RU) of 34 RU, a Kd of 342 nM, a koff of 0.0998 s⁻¹ and a kon of 291000 M⁻¹ s⁻¹. The molecule further registered a t½ in experiment [3] of 7.2 s. For the same molecule, in experiment [4], the 100 nM Ag Bound (RU) amounted to 35 RU, the Kd came out at 334 nM, the koff was 0.0883 s⁻¹ and the kon turned out to be 264000 M⁻¹ s⁻¹. In experiment [4], the t½ was determined as 7.8 s.

B7: mAb25491 (antibody, human IgG4, V domains shown)
VH: QVQLVQSGAEVMKPGASVKVSCKASGYTFTGYYIHWVRQAPGQGLEWMGWITPNSGATNYAQKFQGRVTLTRDTSISTAYMELTRLKSDDTAVYYCARGGQLEFFYYYYGMDVWGQGTTVTVSS
VL: DIQMTQSPSSLSASAGDRVTITCRASQSIDSYLNWYQQKPGKAPKLLISATSGFQSGVPSRFSGSGSGTDFTLTISSLQPEDFGTYYCQQSYTTPITFGQGTRLEIK
Consider B7, for which the 100 nM Ag Bound (RU) in experiment [1] was found to be 5 RU; in experiment [2] it was 1 RU; in experiment [3] it was 4 RU; in [4] it was 1 RU.

B8: mAb22035 (antibody, human IgG4, V domains shown)
VH: EVQLVESGGGLVQPGRSLRLSCAASGFTFDDYAMHWVRQAPGKGLEWVSGISWNSGTIGYADSVKGRFTMSRDNAKNSLYLQMNSLRPEDTALYYCAKDMGVSLALWGAFDIWGQGTMVTVSS
VL: DIQMTQSPSSLSASVGDKVTITCRASQNIRTYLNWYQQKPGKAPKVLISTASSLQSGVPSRFSGSGSGTDFTLTISSLQPEDFAVFYCQQSFGIPRTFGQGTKVEIK
On to B8, for which the 100 nM Ag Bound (RU) was 0 RU in experiment [1], 0 RU in experiment [2], 1 RU in experiment [3] and 1 RU in [4].
